The values below come from US9835633.

The test system of this data set is human apolipoprotein E4.
human apolipoprotein E4, sequence (chain, as listed by the source): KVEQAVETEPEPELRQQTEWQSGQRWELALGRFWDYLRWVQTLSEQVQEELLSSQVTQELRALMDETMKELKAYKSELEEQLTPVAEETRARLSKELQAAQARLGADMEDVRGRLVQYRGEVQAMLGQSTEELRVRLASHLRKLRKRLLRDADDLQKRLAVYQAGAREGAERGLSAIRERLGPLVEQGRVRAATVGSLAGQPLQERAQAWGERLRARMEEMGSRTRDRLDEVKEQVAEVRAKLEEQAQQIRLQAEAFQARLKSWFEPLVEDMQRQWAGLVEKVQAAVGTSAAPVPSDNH

In the case of “PCSK2 (Protein Convertase, Subtilisin/Kexin-Type-2), overexpressed by transient transfection”, the “apoE fragmentation in NSE-apoE4 primary neurons overexpressing the enzyme” value is reported as “A mild increase of apoE fragmentation was also detected in NSE-apoE4 primary neurons overexpressing PCSK1 or PCSK2”.

For “PCSK1 (Protein Convertase, Subtilisin/Kexin-Type-1), overexpressed by transient transfection”, the “apoE fragmentation in NSE-apoE4 primary neurons overexpressing the enzyme” value is reported as “A mild increase of apoE fragmentation was also detected in NSE-apoE4 primary neurons overexpressing PCSK1 or PCSK2”.
